Measured values published in paper PMC3222648, “Inotropic Action of the Puberty Hormone Kisspeptin in Rat, Mouse and Human: Cardiovascular Distribution and Characteristics of the Kisspeptin Receptor” (PLoS ONE, 2011).
Several values for one entry are separate records, joined by “and”; a condition that tells them apart may be missing. Equal entries are not always repeated. Where two headings read alike, the source gives them in different places. Where no end group is shown, it is not given here.

Columns and labels:
[1] = cited from earlier work
Text: Our discovery that kisspeptins are positive inotropic agents in human and rodent heart is the first report of such activity. […] Activation of these signaling pathways would be consistent with function as both an inotropic a ...

native human tissue = conditions: ref [40]; cited from earlier work
kisspeptin receptor [2] = conditions: ref [3]; cited from earlier work
Text: Kisspeptin, or KP-54, is a member of a larger group of peptides, the RF amides, named after their shared C-terminal amino acids. RF amides have wide ranging roles in reproduction, feeding, blood pressure regulation and pain modulation with kisspeptins most closely implicated in reproduction and energy balance, [23]–[27]. KP-54 is cleaved from a single precursor, encoded by the KISS1 gene, and smaller fragments of kisspeptin have been identified that are cleaved from KP-54 by unidentified proteases.

kisspeptin receptor [3] = molecular target: T1, kisspeptin receptor (Rattus norvegicus, UniProt Q924U1); test: [^125I]KP-14 saturation binding, rat heart sections
Experimental: (§1) [^125I]KP-14 binding was detected using a gamma counter to measure disintegrations per minute (dpm) and total protein content was calculated using the Biorad 96-well microtiter plate system. Radioligand binding study data were analyzed using the iterative, non-linear curve fitting programs EBDA and LIGAND in the KELL package (Biosoft, Cambridge, UK). Pooled KD, BMAX and Hill slopes (nH) were expressed as mean±SEM and normalized to protein concentrations. […] Where appropriate, values were compared by one-way analysis of variance (ANOVA). In all cases P<0.05 was considered statistically significant and n-values were the number of animals or patients from which data were obtained.

kisspeptin receptor [4] = molecular target: T1, kisspeptin receptor; test: [^125I]KP-14 receptor autoradiography, rat cardiovascular tissue sections; type: binding; conditions: for [^125I]KP-14 specific binding: 0.2 nM [^125I]KP-14, 2 h, pH 7.4, non-specific: 1 µM KP-10, mean ± SEM
Experimental: (§2) For receptor autoradiography, cryostat-cut sections of human (15 µm) or rat (10 µm) heart were pre-incubated with phosphate binding buffer (mM: NaH2PO4, 50; NaCl, 100; EDTA, 5; MgCl2, 5; protease inhibitor cocktail, 1; pH 7.4) before incubation for 2 h with 0.2 nM [^125I]KP-14 [31]. […] Equilibrium was broken by washing in 50 mM Tris-HCl buffer, pH 7.4, 4°C before air-drying and apposition to radiation-sensitive film (Kodak Biomax MR) and determination of specific binding by computer-assisted densitometry using the Quantimet 970 system (Leica Microsystems, Bucks, UK).

kisspeptin receptor [5] = molecular target: T2, kisspeptin receptor (Homo sapiens, UniProt Q969F8); test: [^125I]KP-14 receptor autoradiography, human cardiovascular tissue sections; type: binding; conditions: for [^125I]KP-14 specific binding: 0.2 nM [^125I]KP-14, 2 h, mean ± SEM
T2 construct: cryostat-cut sections of human (15 µm) or rat (10 µm) heart; from tissue; host or cells: human right atria (control, dilated cardiomyopathy, ischaemic heart disease), cryostat sections
T2 sequence (Q969F8 whole entry): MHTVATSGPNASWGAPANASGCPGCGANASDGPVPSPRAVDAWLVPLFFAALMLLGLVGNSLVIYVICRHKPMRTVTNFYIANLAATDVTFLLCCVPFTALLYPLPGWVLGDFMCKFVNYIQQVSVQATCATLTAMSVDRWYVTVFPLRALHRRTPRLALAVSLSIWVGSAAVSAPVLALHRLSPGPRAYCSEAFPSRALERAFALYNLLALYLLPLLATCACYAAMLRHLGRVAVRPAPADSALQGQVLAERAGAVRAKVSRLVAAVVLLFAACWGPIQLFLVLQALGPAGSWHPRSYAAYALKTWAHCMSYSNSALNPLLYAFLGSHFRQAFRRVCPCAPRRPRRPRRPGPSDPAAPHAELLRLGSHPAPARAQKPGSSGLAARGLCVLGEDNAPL
Experimental: as §2

kisspeptin receptor [6] = molecular target: T2, kisspeptin receptor; test: [^125I]KP-14 saturation binding, human right atria sections; conditions: for BMAX (receptor density) / nH (Hill coefficient): mean ± SEM, n = 3
Experimental: as §1

human heart = conditions: ref [39]; cited from earlier work
Text: The RF-amide peptide family, which also includes prolactin releasing peptide, are known to have roles in cardiovascular regulation, both centrally and peripherally, [35]. However, to date mRNA studies of kisspeptin receptor distribution in whole heart samples have reported low but varying mRNA expression by northern blot, expression was not detected by PCR [3], [4], [32] except by Sawyer and colleagues, who were also able to detect mRNA encoding murine kisspeptin, albeit at very low copy number. We now report for the first time, the expression of kisspeptin a ...

KP-14 = molecular target: T3, KP-14 (Homo sapiens, UniProt Q15726, ends and bridges not checked; also: 125I-labelled); test: saturation radioligand binding, heart sections
T3 chain: DLPNYNWNSFGLRF

[7] = human right atria, dilated cardiomyopathy (DCM)
[8] = human right atria, ischaemic heart disease (IHD)

In the case of apelin, the “pD2 (inotropic effect)” value ([1]; ref [44]) is given as 9.9 and the BMAX (native human tissue) is given as 3.1 fmol/mg.

In the case of “KP-13: smaller fragment of kisspeptin cleaved from KP-54 (LPNYNWNSFGLRF; ends and bridges not checked; UniProt Q15726 109-121, looked up)”, the “biological activity of fragment” value (kisspeptin receptor [2]) is given as “retain biological activity”.

In the case of “[^125I]KP-14: radioligand (2000 Ci/mmol) prepared from unlabelled KP-14 by direct iodination using the chloramine-T method (DLPNYNWNSFGLRF; not fully specified; ends and bridges not checked; also: 125I radiolabel, site not given here; UniProt Q15726 108-121, looked up)”, the “Hill slopes (in words)” value (kisspeptin receptor [3]) is reported as “close to unity”, the BMAX (kisspeptin receptor [3]; mean ± SEM, n = 6) is reported as 11 ± 2 fmol/mg and the “[^125I]KP-14 specific binding” value (kisspeptin receptor [4]; rat aorta, n = 3) is reported as 21±2 amol mm^−2. For the same molecule, the “[^125I]KP-14 specific binding” value (kisspeptin receptor [4]; rat heart, n = 5) was 29±10 amol mm^−2, the “specific binding of [^125I]KP-14 (in words)” value (kisspeptin receptor [4]; rat myocardium, rat aorta smooth muscle) was “observed in all regions of human and rat myocardium” and the “[^125I]KP-14 specific binding” value (kisspeptin receptor [5]; human aorta, pH 7.4, n = 6) was 214±46 amol mm^−2. For the same molecule, the “[^125I]KP-14 specific binding” value (kisspeptin receptor [5]; human apex, pH 7.4, n = 4) was 27±6 amol mm^−2, the “[^125I]KP-14 specific binding” value (kisspeptin receptor [5]; human atrial appendage, pH 7.4, n = 4) was 51±15 amol mm^−2 and the “[^125I]KP-14 specific binding” value (kisspeptin receptor [5]; human interventricular septum, pH 7.4, n = 3) was 29±10 amol mm^−2. The “[^125I]KP-14 specific binding” value (kisspeptin receptor [5]; human left atria, phosphate binding buffer pH 7.4, non-specific: 10 µM KP-14, n = 3) was 59±16 amol mm^−2, the “[^125I]KP-14 specific binding” value (kisspeptin receptor [5]; human left ventricle, pH 7.4, n = 3) was 34±8 amol mm^−2 and the “specific binding of [^125I]KP-14 (in words)” value (kisspeptin receptor [5]; human myocardium, all regions, smooth muscle of human aorta and small coronary resistance vessels) was “observed in all regions of human and rat myocardium”. The “[^125I]KP-14 specific binding” value (kisspeptin receptor [5]; human right atria, pH 7.4, n = 3) was 36±7 amol mm^−2, the “[^125I]KP-14 specific binding” value (kisspeptin receptor [5]; human right ventricle, pH 7.4, n = 3) was 31±7 amol mm^−2 and the “[^125I]KP-14 specific binding” value (kisspeptin receptor [5]; human small resistance vessel, pH 7.4, n = 5) was 4±3 amol mm^−2. The “BMAX (receptor density)” value (kisspeptin receptor [6]; control human right atria) was 8±5 fmol mg^−1 protein and 8.0±4.8 fmol mg^−1 protein, the “nH (Hill coefficient)” value (kisspeptin receptor [6]; control human right atria) was 0.82±0.10 and the “Hill slopes (in words)” value (kisspeptin receptor [6]; human right atria) was “close to unity”. For the same molecule, the “difference in receptor density or binding affinity” value (kisspeptin receptor [6]; human right atria, control vs DCM vs IHD) was “No significant difference in receptor density or binding affinity”, the “BMAX (receptor density)” value (kisspeptin receptor [6]; [7]) was 10.2±3.4 fmol mg^−1 protein and the “nH (Hill coefficient)” value (kisspeptin receptor [6]; [7]) was 1.00±0.02. For the same molecule, the “BMAX (receptor density)” value (kisspeptin receptor [6]; [8]) was 13.5±7.0 fmol mg^−1 protein and the “nH (Hill coefficient)” value (kisspeptin receptor [6]; [8]) was 0.94±0.03.

In the case of “urotensin-II: vasoactive peptide and potent inotrope in human heart (ETPDCFWKYCV; ends and bridges not checked; cysteine pairing not given here; UniProt O95399 114-124, looked up)”, the “inotropic activity (in words)” value (human heart) is given as “potent inotrope in human heart”.

In the case of endothelin, the “pD2 (inotropic effect)” value ([1]; ref [43]) is listed as 8.9.

For “KP-14: smaller fragment of kisspeptin cleaved from KP-54; custom synthesised by Severn Biotech (DLPNYNWNSFGLRF-NH2; ends and bridges not checked; UniProt Q15726 108-121, looked up)”, the “biological activity of fragment” value (kisspeptin receptor [2]) is listed as “retain biological activity”.

B1: Kisspeptin receptor (protein)
chain: MAAEATLGPNVSWWAPSNASGCPGCGVNASDGPGSAPRPLDAWLVPLFFAALMLLGLVGNSLVIFVICRHKHMQTVTNFYIANLAATDVTFLLCCVPFTALLYPLPTWVLGDFMCKFVNYIQQVSVQATCATLTAMSVDRWYVTVFPLRALHRRTPRLALTVSLSIWVGSAAVSAPVLALHRLSPGPHTYCSEAFPSRALERAFALYNLLALYLLPLLATCACYGAMLRHLGRAAVRPAPTDGALQGQLLAQRAGAVRTKVSRLVAAVVLLFAACWGPIQLFLVLQALGPSGAWHPRSYAAYALKIWAHCMSYSNSALNPLLYAFLGSHFRQAFCRVCPCGPQRQRRPHASAHSDRAAPHSVPHSRAAHPVRVRTPEPGNPVRRSPSVQDEHTAPL
With B1 the Kd (KP-14) was 440 pM.
